Here are results for 125 sequences from the supplement of paper PMC9112550, “Optimization of the antimicrobial peptide Bac7 by deep mutational scanning” (BMC Biology, 2022).

The test system of the data set is Escherichia coli TOP10. The data set is described as follows: shrunken log2 fold change of peptide-encoding DNA abundance (4.5 h post-induction vs induction); higher = less antimicrobial activity (less host growth inhibition). Particulars: time post-induction: 4.5 h; library: site-saturation at positions 5, 18, 19, 20.
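Further: peptides expressed intracellularly from a pBAD plasmid library in pooled LB shake-flask culture, induced with 0.3% L-arabinose, DNA abundance read by NGS, three biological replicates, DESeq2 with apeglm shrinkage.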

For RRIRLRPPRLPRPRPRPIPEPRP, the “shrunken log2 fold change” value is 0.0268.

On to RRIRSRPPRLPRPRPRPWNWPRP, for which the “shrunken log2 fold change” value was -0.328. The result for RRIRGRPPRLPRPRPRPVAKPRP reads 0.961.

Take RRIRMRPPRLPRPRPRPDHVPRP: the “shrunken log2 fold change” value is -0.0107. As for RRIRNRPPRLPRPRPRPYSDPRP, the “shrunken log2 fold change” value is -0.031. RRIRWRPPRLPRPRPRPYELPRP: the “shrunken log2 fold change” value was -0.0904.

With RRIRKRPPRLPRPRPRPHVMPRP, the “shrunken log2 fold change” value was 0.0754.

For the sequence RRIRGRPPRLPRPRPRPKASPRP, the “shrunken log2 fold change” value turned out to be 0.234. The result for RRIRTRPPRLPRPRPRPRNRPRP reads -0.0827. For RRIRIRPPRLPRPRPRPPPMPRP, the “shrunken log2 fold change” value came out at 0.377. The figure for RRIRNRPPRLPRPRPRPGYAPRP is -0.0974; for RRIRKRPPRLPRPRPRPKGVPRP it is 0.286; for RRIRVRPPRLPRPRPRPPLKPRP it is 0.343. The figure for RRIRMRPPRLPRPRPRPCCSPRP is 0.0205. The result for RRIRERPPRLPRPRPRPWSAPRP reads -0.00234. As to RRIRSRPPRLPRPRPRPAIWPRP, the “shrunken log2 fold change” value is 0.463.

RRIRRRPPRLPRPRPRPHVYPRP: the “shrunken log2 fold change” value is -0.341. The result for RRIRFRPPRLPRPRPRPDVAPRP reads 0.239; that for RRIRTRPPRLPRPRPRPFPTPRP, 0.105; that for RRIRIRPPRLPRPRPRPGKTPRP, -0.126. The result for RRIRRRPPRLPRPRPRPAWEPRP reads 0.301; that for RRIRYRPPRLPRPRPRPASDPRP, -0.348; that for RRIRDRPPRLPRPRPRPMPNPRP, -0.258. The result for RRIRERPPRLPRPRPRPYIFPRP reads -0.15; that for RRIRSRPPRLPRPRPRPADCPRP, 0.0938. Take RRIRPRPPRLPRPRPRPKKTPRP: the “shrunken log2 fold change” value was -0.107. The figure for RRIRERPPRLPRPRPRPRMWPRP is 0.302; for RRIRHRPPRLPRPRPRPWSLPRP it is -0.121; for RRIRKRPPRLPRPRPRPKMFPRP it is -0.146. The result for RRIRNRPPRLPRPRPRPGVAPRP reads 0.135; that for RRIRRRPPRLPRPRPRPAEVPRP, 0.219. Consider RRIRIRPPRLPRPRPRPWNMPRP, for which the “shrunken log2 fold change” value is 0.0777. The result for RRIRWRPPRLPRPRPRPALWPRP reads 0.53; that for RRIRDRPPRLPRPRPRPENRPRP, -0.0191. The figure for RRIRGRPPRLPRPRPRPTRTPRP is 1.32; for RRIRRRPPRLPRPRPRPEWPPRP it is 0.387; for RRIRPRPPRLPRPRPRPFGPPRP it is -0.083.

As for RRIRMRPPRLPRPRPRPYCHPRP, the “shrunken log2 fold change” value is -0.545. The figure for RRIRQRPPRLPRPRPRPWRGPRP is -0.0544; for RRIRFRPPRLPRPRPRPWNMPRP it is -0.24; for RRIRPRPPRLPRPRPRPCRAPRP it is 0.0858. The result for RRIRARPPRLPRPRPRPKRLPRP reads 0.656. The figure for RRIRMRPPRLPRPRPRPRIIPRP is -0.138.

For the sequence RRIRSRPPRLPRPRPRPIDVPRP, the “shrunken log2 fold change” value was -0.0081. The figure for RRIRMRPPRLPRPRPRPNCTPRP is -0.15; for RRIRVRPPRLPRPRPRPSRMPRP it is -0.0384. The result for RRIRFRPPRLPRPRPRPLDAPRP reads 0.0999; that for RRIRGRPPRLPRPRPRPDCGPRP, 0.879; that for RRIRDRPPRLPRPRPRPVMDPRP, 0.114. Regarding RRIRERPPRLPRPRPRPGQQPRP, the “shrunken log2 fold change” value is -0.0809. The figure for RRIRKRPPRLPRPRPRPGQYPRP is 0.0797.

For RRIRYRPPRLPRPRPRPVEQPRP, the “shrunken log2 fold change” value is -0.191.

Turning to RRIRKRPPRLPRPRPRPMQAPRP, the “shrunken log2 fold change” value was 1.15. RRIRCRPPRLPRPRPRPCKRPRP: the “shrunken log2 fold change” value is -0.115.

For RRIRQRPPRLPRPRPRPPFDPRP, the “shrunken log2 fold change” value was 0.283. As to RRIRLRPPRLPRPRPRPMGCPRP, the “shrunken log2 fold change” value was 0.031. The figure for RRIRFRPPRLPRPRPRPEWNPRP is -0.21. Turning to RRIRLRPPRLPRPRPRPHNCPRP, the “shrunken log2 fold change” value is -0.192. The result for RRIRQRPPRLPRPRPRPYANPRP reads -0.264; that for RRIRSRPPRLPRPRPRPVWKPRP, -0.1; that for RRIRVRPPRLPRPRPRPTGAPRP, 0.47. As for RRIRGRPPRLPRPRPRPMGSPRP, the “shrunken log2 fold change” value is -0.0284. The result for RRIRWRPPRLPRPRPRPKFFPRP reads 0.00459; that for RRIRARPPRLPRPRPRPRSKPRP, 0.374. The result for RRIRARPPRLPRPRPRPVQMPRP reads 0.21; that for RRIRMRPPRLPRPRPRPALLPRP, 0.727; that for RRIRVRPPRLPRPRPRPNEYPRP, -0.487.

As for RRIRIRPPRLPRPRPRPVKLPRP, the “shrunken log2 fold change” value is -0.0316. The result for RRIRCRPPRLPRPRPRPWDNPRP reads -0.291.

On to RRIRTRPPRLPRPRPRPQNAPRP, for which the “shrunken log2 fold change” value is -0.12.

In the case of RRIRCRPPRLPRPRPRPKLCPRP, the “shrunken log2 fold change” value came out at 0.0418. RRIRVRPPRLPRPRPRPVRQPRP: the “shrunken log2 fold change” value is -0.0557. The result for RRIRSRPPRLPRPRPRPIACPRP reads 0.12; that for RRIRHRPPRLPRPRPRPQCRPRP, -0.0351. Turning to RRIRCRPPRLPRPRPRPRIVPRP, the “shrunken log2 fold change” value turned out to be 0.0193. The figure for RRIRKRPPRLPRPRPRPCYKPRP is 0.0747; for RRIRPRPPRLPRPRPRPWFGPRP it is -0.0238; for RRIRIRPPRLPRPRPRPFHEPRP it is -0.0627.

Turning to RRIRWRPPRLPRPRPRPFYCPRP, the “shrunken log2 fold change” value is -0.151. RRIRARPPRLPRPRPRPAHPPRP: the “shrunken log2 fold change” value was 0.653. The figure for RRIRCRPPRLPRPRPRPDIRPRP is 0.121. The result for RRIRLRPPRLPRPRPRPDQSPRP reads 0.0621. The figure for RRIRNRPPRLPRPRPRPNCGPRP is 0.0526; for RRIRDRPPRLPRPRPRPYWKPRP it is -0.00829; for RRIRVRPPRLPRPRPRPNPIPRP it is 0.129. RRIRTRPPRLPRPRPRPDWYPRP: the “shrunken log2 fold change” value was -0.622. The figure for RRIRQRPPRLPRPRPRPHKRPRP is -0.218; for RRIRARPPRLPRPRPRPIWFPRP it is 0.225.

RRIRRRPPRLPRPRPRPRDPPRP: the “shrunken log2 fold change” value stood at 0.74. The figure for RRIRHRPPRLPRPRPRPSSGPRP is -0.427; for RRIRMRPPRLPRPRPRPLFGPRP it is 0.232; for RRIRYRPPRLPRPRPRPEAFPRP it is -0.00226. The result for RRIRWRPPRLPRPRPRPFRWPRP reads 0.0815; that for RRIRFRPPRLPRPRPRPATSPRP, 0.0918; that for RRIRWRPPRLPRPRPRPNPHPRP, -0.0669. The result for RRIRWRPPRLPRPRPRPAHTPRP reads -0.172.

Take RRIRIRPPRLPRPRPRPNVFPRP: the “shrunken log2 fold change” value was -0.27. For the sequence RRIRYRPPRLPRPRPRPCHRPRP, the “shrunken log2 fold change” value was -0.169. The figure for RRIRHRPPRLPRPRPRPFQTPRP is -0.183; for RRIRSRPPRLPRPRPRPNHIPRP it is -0.651. The figure for RRIRYRPPRLPRPRPRPIWIPRP is -0.0319.

In the case of RRIRSRPPRLPRPRPRPCKMPRP, the “shrunken log2 fold change” value was -0.215.

Consider RRIRERPPRLPRPRPRPDLCPRP, for which the “shrunken log2 fold change” value was -0.00931. The result for RRIRNRPPRLPRPRPRPMLSPRP reads 0.081. The figure for RRIRDRPPRLPRPRPRPPQHPRP is 0.171. As to RRIRIRPPRLPRPRPRPSGIPRP, the “shrunken log2 fold change” value is -0.469.

For the sequence RRIRNRPPRLPRPRPRPSLKPRP, the “shrunken log2 fold change” value is -0.47. The result for RRIRMRPPRLPRPRPRPENQPRP reads 1.86; that for RRIRSRPPRLPRPRPRPWTIPRP, -0.133. The figure for RRIRWRPPRLPRPRPRPTPVPRP is 0.49.

Consider RRIRSRPPRLPRPRPRPGIHPRP, for which the “shrunken log2 fold change” value was found to be 0.115. As to RRIRCRPPRLPRPRPRPKPTPRP, the “shrunken log2 fold change” value stood at 0.128. The figure for RRIRPRPPRLPRPRPRPYQKPRP is 0.0104. The figure for RRIRLRPPRLPRPRPRPDYKPRP is -0.354; for RRIRPRPPRLPRPRPRPEKFPRP it is -0.181; for RRIRKRPPRLPRPRPRPNHCPRP it is 0.0144. The result for RRIRQRPPRLPRPRPRPHRLPRP reads -0.0506; that for RRIRYRPPRLPRPRPRPVTCPRP, -0.0508; that for RRIRGRPPRLPRPRPRPKMWPRP, 0.868. On to RRIRWRPPRLPRPRPRPMPLPRP, for which the “shrunken log2 fold change” value is -0.0398.

In the case of RRIRCRPPRLPRPRPRPNGHPRP, the “shrunken log2 fold change” value is -0.023. For RRIRRRPPRLPRPRPRPKFCPRP, the “shrunken log2 fold change” value came out at 0.175. The figure for RRIRDRPPRLPRPRPRPKIKPRP is 2.05. Consider RRIRYRPPRLPRPRPRPIVNPRP, for which the “shrunken log2 fold change” value was -0.558. The figure for RRIRGRPPRLPRPRPRPGPHPRP is 0.57.
